# Test: yeast display, Sf9 membrane polyspecificity reagent, FACS + sequencing; frameworks hold sequencing errors
# Method in brief: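 Using colony PCR, genes from sorted yeast display clones were amplified, then sequenced on MiSeq at 2 × 250 and filtered by CDR length. The clones had been stained with 10% biotinylated, detergent-solubilized Sf9 membrane reagent for 1 hour at 4 °C and sorted by FACS into low and high (top ~1%) gates on anti-HA and streptavidin fluorescence. Polyreactivity labels come from the gate of origin.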
row,Sequence,polyreactivity (PSR sort gate)
1,QVQLVESGGGLVQAGGSLRLSCAASGSTFAWYAMGWYRQAPGKERELVASIRWGGGSTYYADSVKGRFTISRDNAKNTVFLQMHSLKPEDTAVYYCAAYFGYTVGRYNYWGQGTQVTVSS,high polyreactivity
2,QVQLVESGAGLVQAGGSLRLSCAASGFTFYDYAMGWYRQAPGKERELVAAISRGGGSTYYADSVKGRFTISRDNAKNTVYLQMNSLKPEDTAVYYCNAALTRVSRFWGGDYYYWGQGTQVTVSS,high polyreactivity
3,QVQLVESGGGLVQAGGSLRLSCAPSGRYYAMGWNRQAPGKEREMVAAISSGGSTNYADSVKGRFTISRDNAKNTVYLQMNSLKPEDTAVYYCAALIRQLRYYLYYYWGQGTQVTVSS,high polyreactivity
4,QVQLVESGGGLVQAGGSLRLSCAASGGTFGKNAMGWYRQAPGKERELVAAITWSGARTFYADSVKGRFTISRDNAKNTVYLQMNSLKPEDTAVYYCGKGGTRFTRYEYWGQGTQVTVSS,high polyreactivity
5,QVQLVESGGGLVQAGGSLRLSCPASGFIFQHYAMGWYRQAPGKERELVAAIDFTDGSTYYADSVKGRFTISRDNAKNTVYLQMNSLKPEDTAVYYCNALDYLYGGIYLDEDYWGQGTQVTVSS,low polyreactivity
6,QVQLVESGGGLVQAGGSLRLSCAASGFIIYGYAMGWYRQAPGKESELVAAISRRSASTYYADSVKGRFTISRDNAKNTVYLQMNSLNPEDTAVYYCNAASARGVIGYKPLWYARGYWGQGTQVTVSS,high polyreactivity
7,QVQLVESGGGLVQAGGSLRLSCAASGIIFFHYAMGWYRQAPGKERELVAAITWSGGSTYYADSVKGRFTISRDNAKNTVYLKMNSLKPEDSAVYYCNAVLHRRLYDYWGQGPQVTVSS,high polyreactivity
8,QVQLVESGGGLVQAGGSLRLSCAASGFIFSYYAMGWYRQAPGKERELVAAITWDGGSTYYADSVKGRFTISRDNAKNTVYLQMNSLKPEDTAVYYCNAYYYYRRPLEGGYGGQGTQVTVSS,low polyreactivity
9,QVQRVESGGGLVQAGGSLRLSCAHSGRTFPRYVMGRYRQAPAKERELVAAITSSGGSTYYADSVKGRFTISRDNAKNTVYLQMNSLKPEDTAVYYCAAYARPYSGPYAYRLDYWGQGTQVTVSS,high polyreactivity
10,QVQLVESGGGLDQAGGSLRLSCAASGSTFYLYAMGWYRQAPGKERELVAAISSGGRTNYADSVKGRFTISRDNAKNTVYLQMNSLKPEDTAVYYCAARIQWPTWSLYYYWGQGTQVTVSS,high polyreactivity
11,QVQLVESGGGLVQAGGSLRLSCAASGRIFFRYVMGWYRPAPGKERELVATSTRSGGTTYYADSVKGRFTISRDNAKNTVYLQMNSLKPEDTAVYYCATDYTYHRVGPLYGFWGQGTQLTVSS,low polyreactivity
12,QVQLVESGGGLVQAGGSLRLSCAASGRIDLDYDMGWYRPAAGKERELVATISSGGSTNYADSVKGRFTISRDNAKNTVYLQMNSLKPDDTAVYYCNKDYHVRYYYWGQGTQVTVSS,low polyreactivity
13,QVQLVESGGGLHQAGGSLRLSCAASGSISGYNPMGWYRQAPGKESELVAVNTTDGSTNYADSVKGRFTISRDNAKNTVYLQMNSLKPEDTAVYYCNTHDGWRLLWEYDYWGQGTQVTVSS,low polyreactivity
14,QVQLVESGGGIVQAGGRLRLSCAASGRTSAVNAMVWYRQAPGKERELVAAITKSGGRTYYADSEKGRFTISRDNAKNTVYLQMNSLKPEDTAVYYCATSLLSRYGMDYWGQGTQVTVSS,high polyreactivity
15,QVQLGESGGGLVQAGGSLRLSCAASGRTFGLYAMGWYRQAPGKERELVAAISWGGGRTYYADSVKGRFTISRDNAKNTVYLQMNSLKPEDTAVYYCNAVYSPRYYVGGYDYWGQVTQVTVSS,high polyreactivity
16,QVQLVESGGGLVQAGGSLRLSCAPSRFIFFFYAMGWYRQAPGKERELVAAISDGVSTYYADSVKGRFTISRDNAKNTVYLQKNSLKPDDTAVYYCAVSRGDDPEFDYWGKGTQVTVSS,low polyreactivity
17,QVQLVESGGGLVQAGGSLRLSCASSGKIFLSYAMGWYRQAPGKERELVAGISASGGRTYYADSVKGRFTISRDNAKNTVYLQMNSLKPEDTAVYYCNADTTPQGNVRDGYWGQGTQVTVSS,high polyreactivity
18,QVQLVESGGGLVQAGGSLRLICAATGITFEGYAMGWYRQAPGKERELVAAIRSSGTSTYYADSVKGRFTISRDNAKNTVYLQMNSLKPEDTAVYYCNRARSSSRYDYWGQGTQVTVSS,low polyreactivity
19,QVQLVESGGGLVQAGGSLRLSCAASGSISRVYAMGWYRAAPGKERELVASISRSGGSTYYADSVKGRFTISRDNAKNTVYLQRNSLKPEDTAVYYCAKASKGQYRFDYWGQGTQVTVSS,low polyreactivity
20,QVQLVESGGGLVQAGGSLRLSCAASGSTFIVYAMGWYRQATGKERELVAAISLDGGSTYYADSVKGRFTISRDNAKNTVYLQMNSLKPEDTAVYYCNADYYANSITYDSWGQGTQVTVSS,low polyreactivity
21,QVQLVESGGGLVQAGGSLRLSCAASGSIVGYAMGWYRQAPGKERELVAAISSGGSTNYADSVKGRFTISSDNAKNTVYLQMNSLKPVDTAVYYCAARRRYKSGYWGQGTQVTVSS,high polyreactivity
22,QVKLVESGGGFLQAGGRLRLSCAASGIIFYYYAMGRYRQAPGKERELVAAISSGGSTYYSDSVKGRFTISRDNAMNTVYLQMNSLKPEDTAVYYCAADPLYTIDIEYSTYGDYDYWGQGTQVTVSS,low polyreactivity

row,Sequence,polyreactivity (PSR sort gate)
1,QVQLVESGGGLVQAGGSLRLSCAASGRIFGYYAMGWYRQAPGKERELVAAITSGGRTYYADSVKGRFTISRDNAKNTVFLQMNSLKPEDTAVNYCAAVRALRKVRDYYYWGQGTQVTVSS,high polyreactivity
2,QVQLVESGGGLVQAGGSLRLSCAASGFIFYRYTMGWYRQAPGKERELVAAISGSGGSTYYADSVKGRFTISRDNAKNTVYLQMNSLKPEDTAVYYCAAAHRYWGQGTQVTVSS,high polyreactivity
3,QVQLVESGGGLVQAGGSLRLSCAPSGSILGSNAMGGYRQAPGKERELVAAITSSGGSTYYADSVKGRFTISRDNAKNTVYLQMNSLKPEDTAVYYCNADATDSYPEKDYHDSWGQGTQVTVSS,low polyreactivity
4,QVQLVESGGGLVQAGGRLRLSCAASGRIFKDNAMGWYRQAPGKERELVAAISSGASTSYADSVKGRFTISRDNAKNTVYLQMNSLKPEDTAVYYCNRGGDLYYPGWLFDYWGQGTQVTVSS,low polyreactivity
5,QVQLLESGGGLDKAGVRIRLSCASSGIIFAWYAMVWYRQAHRKEMELVAAISWSCGSTYYAYSVKLRFTISRDNAKNTVDLQMNSLTPEDTAVYYCATYPRRQGKYAYWGQGTQVTVSS,high polyreactivity
6,QVQLVESGGGLVQAGGSLRLSCAASGLIFRPYTMGWYRQAPGKERELVAAISRSGGSTYYADSVKGRFTISRDNAKNTVYLQVNSLKPEDTAVYYCNAVPRRQGFNYWGQGTQVTVSS,high polyreactivity
7,QVQLVESGGGLVQAGGSLRLSCAASGFIFSGYAMGWYRQAPGKERELVAAITWSGSNTFYADSVKGRFTISRDNPKNTVYLQMNSLKPEDTAVYYCNGVSKYIRSDYYYWGQGTQVTVSS,high polyreactivity
8,QVQLVESGGGLVQAGGSLRLSCAASGSIFFSYAMGWYRQAPGKERELVAAIDYSGGGTYYADSVKGRFTISRDNAKNTVYLQMNSLKPEDTAVYYCNSDTEVWADTFISYRALNYWGQGTQVTVSS,low polyreactivity
9,QVQLVESGGGLVQAGGSLRLSCAASGLTFSRYAMGWYRQAPGKERELVAAISGSGGSTYYADSVKGRFTISRDNAKNTVYLQMNSLKPEDTAVYYCNKYRATNSARDYWGQGTQVTVSS,high polyreactivity
10,QVQLVESGGGLVQAGGSLRLSCAAYGRIFNEYAMGWYRQAPGKERELVAAITYSDDSTYYADSVKGRFTISRDNAKNTVYLQMISLKPEDTAVYYRNADTPVWDGHAYPVDYWGQGTQVTVSS,low polyreactivity
11,QVQLVESGGGLVQAGGSLRLSCAASGRTFAPYAMGWYRQAPGKERELVARITWSGTDTYYADSVKGRFTISRDNAKNNVYLQMNSLKPEDTAVYYCAADARYSRRYYYWGQGTQVTVSS,low polyreactivity
12,QVQLVESGGGLVQAGGSLRLSCAASGSIFSFNAMGWYRPAPGKERELVAAISKSGGRTYYADSVKGRFTISRDNAKNTVYLQMNSLKPEDTAVYYCNVVSYYLYTPGDYWGQGTQVTVSS,high polyreactivity
13,QVQLVESGGGLVQAGGSLRFSCAASGRIFSGNGMGWYRQAPGKEREFVAAIRFSSGSTYYADSVKGRFTISRDNAKNTVYLQMNSLKPEDTAVYYCARPSIPRRYDYWGQGTQVTVSS,high polyreactivity
14,QVQLEESGGGLVQAGGSIRLSCAASGSTLVGNAMGWYRQAPGKERELVATIDLSDDITYYADSVKGRFTSSRDNAKNTFYLQMNSLKPEDTAVYYCSAEYYLYSTYTVSYGKYDYWGQGTQGTVSS,high polyreactivity
15,QVQLVESGGGLVQAGGSLRLSCAASGRIFSGYVMGWYRQAPGKERELVAVISRSGGSTYYADSVKGRFTISRDNAKNTVYLLMNSLKPEDTAVYYCAAKHIDGSRGYVYWGQGTQVTVSS,low polyreactivity
16,QVQLVESGGGLVQAGGSLRLSCDASGSTFDTYAMGCYTQAPGKERELVAAITEDGASTYYADSVKGRFTISRDNAKYTVYLQMNSLKPEDTAVYYCAAEPTYWPVWYVLYDYLGQGTQVTVSS,low polyreactivity
17,QVQLVESGGGLVQAGGSLRLSCPAPGRIFDRNAMGRYRQAPGKERELVAAISGSGGRTYYADSVKGRFTISRDNAKNTVYLQMNSLKPEDTAVYYCAASRKYGYGDWGQGTQVTVSS,high polyreactivity
18,QVQLVESGGGLVQAGCSLRLSCAASGSIFGWYAMGWYRQAPGTERELVAAITLIGGSTYYADSVKGRFTISRDNAKNTVYLQMNSLKPEDTAVYYCNAVWYWGDMDYWGQGTQVTVSS,low polyreactivity
19,QVQLVESGGGLVQAGGSLRLSCAASGGIFSSYAMGWYRQAPGKERELVADISWNGDSTYYADSVKGRFTISRDNAKNTVYLQMNSLKPEDTAVYYCNAQWYFTPGTPVDYWGQGTQLTVSS,low polyreactivity
20,QVQLVESGGGLVQAGGSLRLSCAASGNIFLRYAMGWYRQAPGKERELVAAISYSGGGSTYYADSVKGRFTISRDNAKNTVYLQMNSLKPEDTAVYYCAKVLTSRTQFFDYDYWGQGTQVSVSS,low polyreactivity
21,QVQLVESGRGLVQAGGSLRLSCAASGRTFYGYARGCYRQAPGKERELVARISSGGGTYYADSVKGRFIISRDNAKYTVYLQMNSLKPEDTAVYYCNAEVYRWSGSYTGWDSWHDDWGQGTQVTVSS,low polyreactivity

# Source: the nanobody polyreactivity screen of Harvey et al. (2022)
